In data set [1] the target is T1, FADase (ferulic acid decarboxylase) (Enterobacter sp. Px6-4, UniProt C6F3U5).
T1 construct: full-length Met1-Lys168, pET-28a(+) EcoRI/HindIII, Ni-NTA purified, E. coli BL21(DE3); 23 kDa subunit, homodimer (44 kDa)
T1 sequence (C6F3U5 1-168): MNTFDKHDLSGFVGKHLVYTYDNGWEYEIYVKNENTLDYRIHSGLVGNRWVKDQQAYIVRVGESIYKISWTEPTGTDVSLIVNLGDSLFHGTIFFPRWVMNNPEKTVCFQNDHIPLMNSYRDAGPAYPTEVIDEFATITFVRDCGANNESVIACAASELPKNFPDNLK
Description: X-ray crystal structure, soaking, […] Å. It counts as binding. The settings on record: crystals soaked overnight with 7 mM sodium ferulate; active site of monomer A.

Data set [2] deals with T2, COc1cc(/C=C/C(=O)O)ccc1O.
T2 construct: full-length Met1-Lys168, pET-28a(+) EcoRI/HindIII, Ni-NTA purified, E. coli BL21(DE3); 23 kDa subunit, homodimer (44 kDa)
Kind of data set: HPLC decarboxylation assay. It counts as biochemical, Enterobacter sp. Px6-4. The settings on record: 50 mM sodium phosphate pH 4.0, 28 °C (standard activity assay). From the text: (§1) HPLC decarboxylation assay on FADase (ferulic acid decarboxylase)

Data set [3] concerns the target Ferulic acid decarboxylase (FADase) from Enterobacter sp. Px6-4 (Enterobacter sp. Px6-4). Description: cross-linking; cross-linking of FADase with ethylene glycolbis (EGS), read on a gel.
For data set [4] the target is unchanged. Description: SEC; gel-filtration / size exclusion chromatography of recombinant FADase; data not shown. In general terms: In gel filtration, larger molecules generally elute earlier.
Substrate in data set [5]: COc1cc(/C=C/C(=O)O)ccc1O
Kind of data set: HPLC decarboxylation assay. The conditions noted are these: 50 mM sodium phosphate pH 4.0, 28 °C (standard activity assay). It counts as biochemical, Enterobacter sp. Px6-4.
Source text: as §1

In the case of `COc1cc(/C=C/C(=O)O)ccc1O` [sodium ferulate], in data set [1], the “X-ray crystal structure, soaking, 2.1 Å” value is given as “The crystal structure of FADase in complex with the substrate analog sodium ferulate”.
For orientation: Km means the concentration of substrate that gives half-maximal velocity. What is called Vmax is the rate approached at saturating substrate. By kcat is commonly meant the number of substrate molecules converted per active site and unit of time at saturation. As usually defined, the kcat/Km is the second-order rate constant that governs catalysis at low substrate concentration. Turning to “FADase (ferulic acid decarboxylase) (Enterobacter sp. Px6-4; E134A)”, in data set [2], the Michaelis constant (Km) stood at 3520 µM, the Vmax turned out to be 285 µM/min, the kcat stood at 0.995 s⁻¹ and the kcat/Km came out at 280 M⁻¹ s⁻¹.
By stoichiometry N is commonly meant a count of units in the complex or per binding partner. For “Ferulic acid decarboxylase (FADase) from Enterobacter sp. Px6-4 (enzyme)”, the stoichiometry N in data set [3] and in data set [4] was 2 throughout.
“FADase (ferulic acid decarboxylase) (Enterobacter sp. Px6-4; W25A)”: in data set [2], the Km was found to be 730 µM, the maximal velocity (Vmax) turned out to be 39.6 µM/min, the kcat was determined as 0.02 s⁻¹ and the kcat/Km was determined as 20 M⁻¹ s⁻¹.

B1: FADase (ferulic acid decarboxylase) (Enterobacter sp. Px6-4) (protein)
chain: MNTFDKHDLSGFVGKHLVYTYDNGWEYEIYVKNENTLDYRIHSGLVGNRWVKDQQAYIVRVGESIYKISWTEPTGTDVSLIVNLGDSLFHGTIFFPRWVMNNPEKTVCFQNDHIPLMNSYRDAGPAYPTEVIDEFATITFVRDCGANNESVIACAASELPKNFPDNLK
notes: full-length Met1-Lys168, pET-28a(+) EcoRI/HindIII, Ni-NTA purified, E. coli BL21(DE3); 23 kDa subunit, homodimer (44 kDa)
As for B1, in data set [5], the Michaelis constant (Km) amounted to 2360 µM, the maximal velocity (Vmax) is 606 µM/min, the kcat is 2.15 s⁻¹ and the specificity constant (kcat/Km) was found to be 910 M⁻¹ s⁻¹.

These data come from paper PMC3025021, “Structural Basis of Enzymatic Activity for the Ferulic Acid Decarboxylase (FADase) from Enterobacter sp. Px6-4” (PLoS ONE, 2011).
